{"source": "patent US9725702B2", "about": "“Laccase from ganoderma lucidum capable of enhancing enzymatic degradation of lignocellulolytic biomass” (DANMARKS TEKNISKE UNIVERSITET, priority 2012, dated 2017)", "key": {"[1]": {"experiment": "Temperature stability of LacGL1 laccase at pH 4.7", "format": "physicochemical", "settings": "for activity retained: pH 4.7", "method": "FIG. 9. The temperature stability profile of LacGL1 laccase as a function of LN [U/mL] vs. incubation time at pH 4.7 and 0.1 M citrate-phosphate buffer. […] The relative difference between single measurements was <5%.\nFIG. 10. LacGL1 laccase stability evolution plot at optimum pH of 4.7 and two different temperature values (40° C. and 50° C.). Since the plot is a continuation of temperature stability plot (FIG. 9), the first measurement is given after 1 h. Laccase residual activity [%] is calculated based on activity value of laccase measured at pH 4.7 and 25° C. The relative difference between single measurements was <5%.\nThe predicted optimal conditions for the LacGL1 laccase activity were validated by measuring the effect of temperature on the relative activity of LacGL1 laccase at pH 4.7. […] (FIG. 10)."}, "[2]": {"experiment": "Substrate specificity of laccase (relative rate of product formation)", "format": "biochemical", "method": "The laccase activity was measured based on a modified method of Ters et al. (2009). The laccase activity was defined as the amount of the enzyme required to oxidise 1 μmol of ABTS per minute at 25° C., and pH 4.7. The assay mixture contained: 0.1 M citrate-phosphate buffer (255 μL, pH 4.7), ABTS (5 μL, 4 mM (ABTS stock solution)), and pre-diluted laccase (5 μL) that ensured the linear range of Michaelis-Menten kinetics. The oxidation of ABTS was monitored at 420 nm (ε420=36800 M^−1cm^−1) for 2 min. in an Infinite 200 microtiter plate reader (Tecan, Salzburg, Austria). Laccase activity assays on the substrates: hydroquinone (248 nm), 2.6-dimethoxyphenol (470 nm), and guaiacol (436 nm) was done similarly with the substrate concentration as described in Table 2 using the following extinction coefficient values: 17.542 M^−1cm^−1, 35.645 M^−1cm^−1, and 6.400 M^−1cm^−1, respectively (Minussi et al. 2007). The data collection was monitored by the program Tecan i-control version 1.5.14.0 (Tecan, Salzburg, Austria). The calculated laccase activity was corrected by the absorbance of a control sample which contained: 0.1 M citrate-phosphate buffer (255 μL, pH 4.7), ABTS (5 μL, 4 mM), and 5 μL of distilled water instead of the enzyme. All determinations of the laccase activity were performed in duplicates, with an average sample standard deviation less than 5%.\nLacGL1 laccase was able to oxidize both ABTS and other phenolic compounds (Table 5) such as: hydroquinone, guaiacol, and 2.6-dimethoxyphenol, however in a slower rate than for ABTS."}, "[3]": {"experiment": "Glucose release in LacGL1-cellulase (Cellic CTec1, CTec2) catalyzed hydrolysis of STEX SCB", "format": "biochemical", "method": "FIG. 11. A graphical comparison of yields of released glucose over time in LacGL1-Cellic® CTec1 catalyzed hydrolysis STEX-SCB at different pH and temperatures. The cellulase preparation is Cellic® CTec1 (CC1) and laccase was Ganoderma lucidum LacGL1 expressed in Pichia pastoris X-33. CC1 and LacGL1 were added in E/S ratio of 0.064%, and 0.4% (w/w), respectively.\nFIG. 12. A graphical comparison of the yields of released glucose over time in LacGL1-Cellic® CTec2 catalyzed hydrolysis of STEX-SCB at different pH and temperatures. The cellulase preparation is Cellic® CTec2 (CC2) and laccase was Ganoderma lucidum LacGL1 expressed in Pichia pastoris X-33. […] and LacGL1 were added in E/S ratio of 0.064%, and 0.4% (w/w), respectively.\n5% (w/v) dry matter of pretreated SCB (STEX SCB) was evaluated in 0.1 M citrate-phosphate buffer at pH 4.7 and 40° C. (optimal for the LacGL1 laccase) or pH 5.1 and 50° C. (optimal for the cellulase preparations), respectively. The commercially available cellulase cocktail preparations: Cellic® CTec1 and Cellic® CTec2 (0.064% Enzyme/Substrate ratio (E/S), w/w; Novozymes, Bagsværd, Denmark) were used with the combination of the LacGL1 laccase (0.4% E/S, w/w). The hydrolysis reactions were collected after 0, 1, 3, 5, 16, and 24 hours and stopped by incubation at 99° C. for 15 min. The samples were then centrifuged at 10.000 rpm for 2 min., the supernatants were filtered through 0.2 μm filter and the yields of released glucose were quantified using the D-glucose-HK kit (Megazyme, Denmark). The glucose yields released over time were corrected for the glucose content of the hydrolysis sample at time 0. The E/S dosage was based on the total protein concentration used. The protein quantification was performed using the Pierce BCA (BiCinchoninic Acid) protein assay kit microplate procedure according to manufacturer's instructions (Thermo Fisher Scientific, Rockford, US) using Bovine serum albumin (BSA) was used as a standard, as described before (Silva et al. 2011). The Cellic® CTec1 (CC1) and Cellic® CTec2 (CC2), cellulase preparations, are based on the Trichoderma reesei cellulase complex (exo-glucanase, endo-glucanase, and β-glucosidase activities) with additional β-glucosidase and glycoside hydrolase family 61 hydrolyse boosting proteins (Harris 2010). All determinations of the enzymatic hydrolysis samples were performed in duplicates.\nRelease of glucose during cellulose hydrolysis of STEX SCB is enhanced by the addition of LacGL1 laccase in a dosage dependent manner (data not shown). The combined laccase plus cellulase treatment of STEX SCB were performed at two different conditions: Firstly, at […], 40° C. which is optimal for the LacGL1 laccase (as previously shown from MODDE pH-temp.-activity model, FIG. 8 and thermal stability plots, FIGS. 9, 10), which are slightly less optimal for cellulases; and secondly at 50° C. and pH 5.1, which are the golden standard conditions for optimal performance of CC1 and CC2. From the MODDE data, […]: the type of the cellulase preparation, the addition of LacGL1, the temperature, and the pH of the reaction (FIG. 11, 12). Overall, the highest rate of STEX SCB hydrolysis, considering all of the aforementioned factors, was obtained for the combination of LacGL1-Cellic® CTec2 at pH 5.1 and 50° C. […] The higher pH and temperature enhanced LacGL1-CC2 catalyzed hydrolysis by 12% (FIG. 12)."}}, "data": [{"molecule": "LacGL1: Fungal laccase from Ganoderma lucidum CBS229.93 (SEQ ID NO: 5/9), recombinantly expressed in Pichia pastoris X-33 (protein, listed as Ganoderma lucidum, mat_peptide (1)..(499) Mature LacGL1 laccase (minus signal peptide)) GIGPKTDLTISNADVAPDGYTRAAVVVNGVFPAPLITGNKGDRFQLNVIDQMTNHTMLKSTSIHWHGFFQKGTNWADGPAFINQCPISSGHSFLYDFQVPDQAGTFWYHSHLSTQYCDGLRGPFVVYDPKDPLKKLYDIDDDSTVITLTDWYHVAARLGPRFPLGSDSTLINGLGRSTTNVTADLAVINVTQGKRYRFRLVSLSCDPNYTFSIDDHNMTVIEADGIETQPVTVNAIQIFSAQRYSFVLTANQTIDNYWIRANPNFGNVGFTDGINSAILRYAGADPVEPTTSQQTTQNLLNEVDLHPFVPKRTPGQPTQGGVDTAINMVFNFNGSNFFINNASFVPPTVPVLLQILSGAQAAQDLLPSGSVYTLPVNKSIELTFPATANAPGAPHPFHLHGHAFAVVRSAGSTVYNYDNPVWRDVVSTGTPAAGDNVTIRFQTDNPGPWFLHCHIDFHLEAGFAVVFAEDPTDTSLANPVPKAWSDLCPTYDALSVDDQ", "values": [{"measurement": "change of activity", "setting": "[1]; 25, 40 and 50° C., pH 4.7, within an hour", "value": "did not change significantly"}, {"measurement": "laccase activity remaining", "setting": "[1]; 60° C., pH 4.7, within an hour", "value": 19, "unit": "%"}, {"measurement": "laccase activity remaining", "setting": "[1]; 70° C., pH 4.7, within an hour", "value": 3, "unit": "%"}, {"measurement": "activity retained", "setting": "[1]; after 5 h at 50° C.", "value": 23, "unit": "%"}, {"measurement": "activity retained", "setting": "[1]; after 24 h at 40° C.", "value": 33, "unit": "%"}, {"measurement": "Laccase relative rate of product formation", "setting": "[2]; substrate 2.6-Dimethoxyphenol 1 mM", "value": 61, "unit": "%"}, {"measurement": "Laccase relative rate of product formation", "setting": "[2]; substrate ABTS 1 mM", "value": 100, "unit": "%"}, {"measurement": "Laccase relative rate of product formation", "setting": "[2]; substrate Guaiacol 1 mM", "value": 66, "unit": "%"}, {"measurement": "Laccase relative rate of product formation", "setting": "[2]; substrate Hydroquinone 1 mM", "value": 80, "unit": "%"}, {"measurement": "improvement in glucose yields over CC1 at pH 5.1 and 50° C.", "setting": "[3]; LacGL1-CC1 at pH 4.6, 40° C.", "value": 66, "unit": "%"}, {"measurement": "improvement in glucose yields over LacGL1-CC1 at pH 5.1 and 50° C.", "setting": "[3]; LacGL1-CC1 at pH 4.6, 40° C.", "value": 48, "unit": "%"}, {"measurement": "total glucose yield higher than CC2 alone", "setting": "[3]; LacGL1-Cellic CTec2 at pH 5.1, 50° C. vs CC2 alone at pH 4.6, 40° C.", "value": 27.5, "unit": "%"}, {"measurement": "total glucose yield higher than CC2 alone", "setting": "[3]; LacGL1-Cellic CTec2 at pH 5.1, 50° C. vs CC2 alone under the same conditions", "value": 19, "unit": "%"}, {"measurement": "enhancement of CC1 mediated-hydrolysis", "setting": "[3]; pH 4.6, 40° C.", "value": 30, "unit": "%"}, {"measurement": "enhancement of LacGL1-CC2 catalyzed hydrolysis by higher pH and temperature", "setting": "[3]; pH 5.1, 50° C. vs pH 4.6, 40° C.", "value": 12, "unit": "%"}]}]}
